Assay results published in patent publication US20240018502A1.
Residue numbers refer to the chain shown, from its start. Names and notes keep the numbering of the source.

Target: plasma purified human complement protein C3 (human) (UniProt P01024)
Experiment: cell-based or functional assay

Sequence of plasma purified human complement protein C3 (human) (P01024 23-667, chain 1 of 2): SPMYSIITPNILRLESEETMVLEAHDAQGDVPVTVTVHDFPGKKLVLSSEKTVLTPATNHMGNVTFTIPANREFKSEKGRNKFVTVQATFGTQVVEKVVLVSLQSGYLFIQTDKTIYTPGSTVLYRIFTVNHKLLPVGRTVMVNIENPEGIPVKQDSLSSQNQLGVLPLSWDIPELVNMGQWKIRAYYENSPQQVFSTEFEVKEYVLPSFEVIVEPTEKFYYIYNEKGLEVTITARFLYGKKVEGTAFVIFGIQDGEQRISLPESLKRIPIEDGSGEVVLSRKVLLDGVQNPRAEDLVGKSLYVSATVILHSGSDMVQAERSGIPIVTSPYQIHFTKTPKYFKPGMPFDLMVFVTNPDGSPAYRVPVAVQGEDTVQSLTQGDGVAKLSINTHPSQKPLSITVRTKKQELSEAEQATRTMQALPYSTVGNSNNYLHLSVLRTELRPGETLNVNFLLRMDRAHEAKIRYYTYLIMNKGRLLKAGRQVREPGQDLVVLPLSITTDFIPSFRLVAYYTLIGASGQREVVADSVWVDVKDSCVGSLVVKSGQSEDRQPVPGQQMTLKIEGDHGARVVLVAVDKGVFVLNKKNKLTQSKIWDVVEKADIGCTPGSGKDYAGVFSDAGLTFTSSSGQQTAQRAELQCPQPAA
Sequence of plasma purified human complement protein C3 (human) (P01024 672-1663, chain 2 of 2): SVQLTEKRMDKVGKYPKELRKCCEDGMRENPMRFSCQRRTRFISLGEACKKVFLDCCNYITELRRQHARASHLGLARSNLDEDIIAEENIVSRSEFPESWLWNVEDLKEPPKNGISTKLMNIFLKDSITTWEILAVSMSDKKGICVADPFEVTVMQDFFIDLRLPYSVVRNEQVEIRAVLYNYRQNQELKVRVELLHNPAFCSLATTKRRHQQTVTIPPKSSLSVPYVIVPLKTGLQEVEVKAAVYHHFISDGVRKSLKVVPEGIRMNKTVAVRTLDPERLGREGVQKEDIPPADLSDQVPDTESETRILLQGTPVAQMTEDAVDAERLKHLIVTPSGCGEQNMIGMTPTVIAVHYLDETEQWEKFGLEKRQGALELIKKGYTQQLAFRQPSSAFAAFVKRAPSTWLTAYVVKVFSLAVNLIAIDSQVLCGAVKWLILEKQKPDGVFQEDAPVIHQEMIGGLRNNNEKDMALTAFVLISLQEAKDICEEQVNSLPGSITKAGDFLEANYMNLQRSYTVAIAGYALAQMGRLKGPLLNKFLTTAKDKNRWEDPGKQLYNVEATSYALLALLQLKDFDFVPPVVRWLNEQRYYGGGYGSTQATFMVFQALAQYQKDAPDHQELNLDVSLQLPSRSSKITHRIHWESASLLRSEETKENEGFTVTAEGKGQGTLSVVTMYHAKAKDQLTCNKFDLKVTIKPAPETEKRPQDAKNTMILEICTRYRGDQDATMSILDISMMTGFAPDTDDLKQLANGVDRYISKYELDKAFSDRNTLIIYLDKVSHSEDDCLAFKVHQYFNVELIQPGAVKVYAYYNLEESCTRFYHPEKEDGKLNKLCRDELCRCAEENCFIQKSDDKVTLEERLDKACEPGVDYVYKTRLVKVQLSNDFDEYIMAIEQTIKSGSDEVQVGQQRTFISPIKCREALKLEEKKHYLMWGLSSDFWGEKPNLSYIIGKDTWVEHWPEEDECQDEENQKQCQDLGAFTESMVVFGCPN

B1: MTSP-1 Q38H/I41S/D60bT/F60eS/Y60gW/D96K/F97G/ins97aV/T98P/F99L/C122S/G151H/Q192D (enzyme)
chain: VVGGTDADEGEWPWQVSLHALGHGHSCGASLISPNWLVSAAHCYIDTRGSRWSDPTQWTAFLGLHDQSQRSAPGVQERRLKRIISHPFFNKGVPLDYDIALLELEKPAEYSSMVRPISLPDASHVFPAGKAIWVTGWGHTQYGGTHALILQKGEIRVINQTTCENLLPQQITPRMMCVGFLSGGVDSCDGDSGGPLSSVEADGRIFQAGVVSWGDGCAQRNKPGVYTRLPLFRDWIKENTGV
For B1, the EC50 of hC3 cleavage was 19.9 nM.

B2: MTSP-1 protease domain I41S/D96K/F97G/ins97aV/T98P/F99L/C122S/Q192V (enzyme)
chain: B1 chain with H23Q, T47D, S50F, W52Y, H146G, D189V
B2 showed an EC50 hC3 cleavage of 32.3 nM.

B3: MTSP-1 protease domain I41S/F99L/C122S/G151N/Q175M/Q192G/D217V (enzyme)
chain: VVGGTDADEGEWPWQVSLHALGQGHSCGASLISPNWLVSAAHCYIDDRGFRYSDPTQWTAFLGLHDQSQRSAPGVQERRLKRIISHPFFNDFTLDYDIALLELEKPAEYSSMVRPISLPDASHVFPAGKAIWVTGWGHTQYGGTNALILQKGEIRVINQTTCENLLPQMITPRMMCVGFLSGGVDSCGGDSGGPLSSVEADGRIFQAGVVSWGVGCAQRNKPGVYTRLPLFRDWIKENTGV
B3 was tested, and the EC50 hC3 cleavage was 3.19 nM.

B4: MTSP-1 protease domain I41S/F97L/F99L/C122S/G151N/Q192G/D217V (enzyme)
chain: B3 chain with F92L, M169Q
Binder B4 has an EC50 hC3 cleavage of 11.9 nM.

B5: MTSP-1 protease domain I41S/F97S/F99L/C122S/G151N/Q175L/Q192A/D217L (enzyme)
chain: B3 chain with F92S, M169L, G188A, V214L
B5 showed an EC50 hC3 cleavage of 11.2 nM.

B6: MTSP-1 protease domain I41G/F97R/F99L/C122S/G151N/Q175L/Q192S/D217V (enzyme)
chain: B3 chain with S26G, F92R, M169L, G188S
B6 gave an EC50 hC3 cleavage of 4.18 nM.

B7: MTSP-1 protease domain I41T/F97L/F99L/C122S/G151N/Q175S/Q192S/D217W (enzyme)
chain: B3 chain with S26T, F92L, M169S, G188S, V214W
With B7 the EC50 hC3 cleavage was 24.2 nM.

B8: MTSP-1 protease domain I41D/F97T/F99M/C122S/Q192V/D217M (enzyme)
chain: B3 chain with S26D, F92T, L94M, N145G, M169Q, G188V, V214M
B8 showed an EC50 hC3 cleavage of 63.8 nM.

B9: MTSP-1 Q38H/I41S/D96K/F97G/ins97aV/T98P/F99L/C122S/Q192D (enzyme)
chain: B1 chain with T47D, S50F, W52Y, H146G
In the case of B9, the EC50 of hC3 cleavage is reported as 108 nM.

B10: MTSP-1 I41S/D96K/F97G/ins97aV/T98P/F99L/C122S/Q175L/Q192D (enzyme)
chain: B1 chain with H23Q, T47D, S50F, W52Y, H146G, Q170L
Binder B10 has an EC50 of hC3 cleavage of 68.6 nM.

B11: MTSP-1 Q38H/I41S/D96K/F97G/ins97aV/T98P/F99L/C122S/Q175L/Q192D (enzyme)
chain: B1 chain with T47D, S50F, W52Y, H146G, Q170L
With B11 the EC50 of hC3 cleavage was 22 nM.

B12: MTSP-1 I41T/F97W/F99L/C122S/G151N/Q175M/Q192G/D217L (enzyme)
chain: B3 chain with S26T, F92W, V214L
Work on B12 yielded an EC50 of hC3 cleavage of 12.1 nM.

B13: MTSP-1 I41G/F97L/F99L/C122S/Q175A/Q192T/D217V (enzyme)
chain: B3 chain with S26G, F92L, N145G, M169A, G188T
B13 gave an EC50 of hC3 cleavage of 7.75 nM.

B14: MTSP-1 I41G/F97V/F99L/C122S/G151Q/Q175M/Q192A/D217L (enzyme)
chain: B3 chain with S26G, F92V, N145Q, G188A, V214L
For B14, the EC50 of hC3 cleavage was 9.74 nM.

B15: MTSP-1 I41G/F97I/F99L/C122S/G151L/Q175M/Q192S/D217V (enzyme)
chain: B3 chain with S26G, F92I, N145L, G188S
With B15 the EC50 of hC3 cleavage was 2.84 nM.

B16: MTSP-1 I41G/F97S/F99L/C122S/G151N/Q175L/Q192G/D217I (enzyme)
chain: B3 chain with S26G, F92S, M169L, V214I
Work on B16 yielded an EC50 of hC3 cleavage of 6.84 nM.

B17: MTSP-1 F97E/F99L/C122S/D217I/K224N (enzyme)
chain: B3 chain with S26I, F92E, N145G, M169Q, G188Q, V214I, K221N
For B17, the EC50 of hC3 cleavage was 6.33 nM.

B18: MTSP-1 C122S/G193A (enzyme)
chain: B3 chain with S26I, L94F, N145G, M169Q, G188Q, G189A, V214D
B18 was tested, and the EC50 of hC3 cleavage was 44.7 nM.

B19: MTSP-1 C122S/G193E (enzyme)
chain: B3 chain with S26I, L94F, N145G, M169Q, G188Q, G189E, V214D
Work on B19 yielded an EC50 of hC3 cleavage of 119 nM.

B20: MTSP-1 D96_F97delinsWYY/T98P/F99L/C122S (enzyme)
chain: B1 chain with H23Q, S26I, T47D, S50F, W52Y, K91W, G92Y, V93Y, H146G, D189Q
B20 showed an EC50 of hC3 cleavage of 22.6 nM.

B21: MTSP-1 F97D/F99L/C122S/Q192G (enzyme)
chain: B3 chain with S26I, F92D, N145G, M169Q, V214D
B21 showed an EC50 of hC3 cleavage of 78.1 nM.

B22: MTSP-1 H40R/I41H/F97D/F99L/C122S/Q192G (enzyme)
chain: B3 chain with H25R, S26H, F92D, N145G, M169Q, V214D
B22 showed an EC50 of hC3 cleavage of 35.4 nM.

B23: MTSP-1 C122S/G151N/G193A (enzyme)
chain: B3 chain with S26I, L94F, M169Q, G188Q, G189A, V214D
With B23 the EC50 of hC3 cleavage was 85.7 nM.

B24: MTSP-1 H40R/I41H/C122S/G151N (enzyme)
chain: B3 chain with H25R, S26H, L94F, M169Q, G188Q, V214D
B24 showed an EC50 of hC3 cleavage of 59.6 nM.

B25: MTSP-1 H40R/I41H/F97D/C122S/G151N (enzyme)
chain: B3 chain with H25R, S26H, F92D, L94F, M169Q, G188Q, V214D
Binder B25 has an EC50 of hC3 cleavage of 110 nM.

B26: MTSP-1 H40R/I41H/F97E/C122S (enzyme)
chain: B3 chain with H25R, S26H, F92E, L94F, N145G, M169Q, G188Q, V214D
B26 was tested, and the EC50 of hC3 cleavage was 51.7 nM.

B27: MTSP-1 F97T/ins97aE/T98G/F99L/C122S/Q175L/Q192E (enzyme)
chain: VVGGTDADEGEWPWQVSLHALGQGHICGASLISPNWLVSAAHCYIDDRGFRYSDPTQWTAFLGLHDQSQRSAPGVQERRLKRIISHPFFNDTEGLDYDIALLELEKPAEYSSMVRPISLPDASHVFPAGKAIWVTGWGHTQYGGTGALILQKGEIRVINQTTCENLLPQLITPRMMCVGFLSGGVDSCEGDSGGPLSSVEADGRIFQAGVVSWGDGCAQRNKPGVYTRLPLFRDWIKENTGV
With B27 the EC50 of hC3 cleavage was 259 nM.

B28: MTSP-1 H40R/I41H/F97D/F99L/Q192G (enzyme)
chain: B3 chain with H25R, S26H, F92D, S117C, N145G, M169Q, V214D
For B28, the EC50 of hC3 cleavage was 24.1 nM.

B29: MTSP-1 H40R/I41H/Y60gH/F97D/F99L/C122S/G151N/Q175A/Q192H/D217I/K224R (enzyme)
chain: B3 chain with H25R, S26H, Y52H, F92D, M169A, G188H, V214I, K221R
Work on B29 yielded an EC50 of hC3 cleavage of 19.8 nM.

B30: MTSP-1 H40R/I41H/Y60gF/F97D/F99L/C122S/Q192G/D217M/K224R (enzyme)
chain: B3 chain with H25R, S26H, Y52F, F92D, N145G, M169Q, V214M, K221R
In the case of B30, the EC50 of hC3 cleavage is reported as 38 nM.

B31: MTSP-1 H40R/I41H/Y60gF/F97D/F99L/C122S/Q192G/D217R/K224A (enzyme)
chain: B3 chain with H25R, S26H, Y52F, F92D, N145G, M169Q, V214R, K221A
B31 was tested, and the EC50 of hC3 cleavage was 25.9 nM.

B32: MTSP-1 H40R/I41H/F97D/F99L/C122S/Q175L/Q192G/D217K/K224A (enzyme)
chain: B3 chain with H25R, S26H, F92D, N145G, M169L, V214K, K221A
B32 gave an EC50 of hC3 cleavage of 14.1 nM.

B33: MTSP-1 H40R/I41H/F97D/F99L/C122S/Q175M/Q192G/D217V/K224Y (enzyme)
chain: B3 chain with H25R, S26H, F92D, N145G, K221Y
For B33, the EC50 of hC3 cleavage was 2.76 nM.

B34: MTSP-1 H40R/I41H/F97D/F99L/C122S/Q175K/Q192G/D217I/K224H (enzyme)
chain: B3 chain with H25R, S26H, F92D, N145G, M169K, V214I, K221H
For B34, the EC50 of hC3 cleavage was 19.4 nM.

B35: MTSP-1 H40R/I41H/F97D/F99L/C122S/Q175M/Q192G/D217S (enzyme)
chain: B3 chain with H25R, S26H, F92D, N145G, V214S
With B35 the EC50 of hC3 cleavage was 24.4 nM.

B36: MTSP-1 H40R/I41H/Y60gF/F97D/F99L/C122S/Q175M/Q192G/D217W/K224R (enzyme)
chain: B3 chain with H25R, S26H, Y52F, F92D, N145G, V214W, K221R
In the case of B36, the EC50 of hC3 cleavage is reported as 9.92 nM.

B37: MTSP-1 H40R/I41H/Y60gN/F97D/F99L/C122S/G151N/Q175K/Q192S/D217S/K224L (enzyme)
chain: B3 chain with H25R, S26H, Y52N, F92D, M169K, G188S, V214S, K221L
B37 gave an EC50 of hC3 cleavage of 187 nM.

B38: MTSP-1 H40R/I41H/Y60gH/F97D/F99L/C122S/Q175M/Q192G/D217I/K224L (enzyme)
chain: B3 chain with H25R, S26H, Y52H, F92D, N145G, V214I, K221L
B38 was tested, and the EC50 of hC3 cleavage was 3.72 nM.

B39: MTSP-1 H40K/I41L/Y60gF/F97D/F99L/C122S/G151N/Q175R (enzyme)
chain: B3 chain with H25K, S26L, Y52F, F92D, M169R, G188Q, V214D
In the case of B39, the EC50 of hC3 cleavage is reported as 237 nM.

B40: MTSP-1 H40R/I41H/Y60gL/F97D/F99L/C122S/G151N (enzyme)
chain: B3 chain with H25R, S26H, Y52L, F92D, M169Q, G188Q, V214D
In the case of B40, the EC50 of hC3 cleavage is reported as 54.9 nM.

B41: MTSP-1 H40K/I41M/Y60gG/F97D/F99L/C122S/G151N/Q175R/Q192R/D217V/K224S (enzyme)
chain: B3 chain with H25K, S26M, Y52G, F92D, M169R, G188R, K221S
Work on B41 yielded an EC50 of hC3 cleavage of 509 nM.

B42: MTSP-1 H40K/I41M/Y60gF/F97D/F99L/C122S/G151N/Q175L/Q192D (enzyme)
chain: B3 chain with H25K, S26M, Y52F, F92D, M169L, G188D, V214D
With B42 the EC50 of hC3 cleavage was 589 nM.

B43: MTSP-1 H40R/I41H/F97D/C122S/G151N/Q175M/Q192A/D217S/K224R (enzyme)
chain: B3 chain with H25R, S26H, F92D, L94F, G188A, V214S, K221R
Work on B43 yielded an EC50 of hC3 cleavage of 470 nM.

B44: MTSP-1 H40R/I41H/Y60gH/F97D/F99L/C122S/Q175M/Q192G/D217I/K224R (enzyme)
chain: B3 chain with H25R, S26H, Y52H, F92D, N145G, V214I, K221R
In the case of B44, the EC50 of hC3 cleavage is reported as 7.94 nM.

B45: MTSP-1 H40R/I41H/F97D/F99L/C122S/G151D/Q175M/Q192G/D217V (enzyme)
chain: B3 chain with H25R, S26H, F92D, N145D
Binder B45 has an EC50 of hC3 cleavage of 70.8 nM.
